Key:
HLA-A*03:01 [1] = experiment: IEDB peptide-MHC binding, purified MHC/direct/fluorescence; filed as Kd, often an IC50 or EC50 that approximates it; ≥ and ≤ were set here for values at or beyond the usual limits of such assays
HLA-A*02:03 [2] = experiment: as above
HLA-A*02:16 = experiment: as above
HLA-A*23:01 = experiment: as above
HLA-A*02:11 [3] = experiment: as above
HLA-A*68:02 = experiment: as above
HLA-A*29:02 [4] = experiment: as above
HLA-A*02:12 [5] = experiment: as above
HLA-A*02:19 [6] = experiment: as above
HLA-B*57:01 [7] = experiment: IEDB peptide-MHC binding, purified MHC/competitive/fluorescence; filed as Kd, often an IC50 or EC50 that approximates it; ≥ and ≤ were set here for values at or beyond the usual limits of such assays
HLA-B*46:01 [8] = experiment: as above
HLA-B*15:17 [9] = experiment: as above
HLA-B*27:03 [10] = experiment: as above
HLA-A*26:01 [11] = experiment: as above
HLA-B*18:01 [12] = experiment: as above
HLA-A*24:03 [13] = experiment: as above; conditions: source organism: Orthohantavirus delgaditoense
HLA-A*69:01 [14] = experiment: as above; conditions: source organism: Orthohantavirus delgaditoense
HLA-A*02:01 [15] = experiment: as above
HLA-B*51:01 [16] = experiment: as above
HLA-B*39:01 [17] = experiment: as above
HLA-A*03:01 [18] = experiment: as above; conditions: source organism: Campylobacter jejuni subsp. jejuni NCTC 11168 = ATCC 700819
HLA-A*02:03 [19] = experiment: as above
HLA-B*15:01 [20] = experiment: as above; conditions: source organism: Campylobacter jejuni subsp. jejuni NCTC 11168 = ATCC 700819
HLA-A*02:11 [21] = experiment: as above
HLA-A*29:02 [22] = experiment: as above; conditions: source organism: Campylobacter jejuni subsp. jejuni NCTC 11168 = ATCC 700819
HLA-A*02:12 [23] = experiment: as above; conditions: source organism: Campylobacter jejuni subsp. jejuni NCTC 11168 = ATCC 700819
HLA-A*02:19 [24] = experiment: as above; conditions: source organism: Campylobacter jejuni subsp. jejuni NCTC 11168 = ATCC 700819
HLA-A*02:06 = experiment: as above; conditions: source organism: Human immunodeficiency virus 1
HLA-B*57:01 [25] = experiment: IEDB peptide-MHC binding, purified MHC/direct/fluorescence; filed as Kd, often an IC50 or EC50 that approximates it; ≥ and ≤ were set here for values at or beyond the usual limits of such assays; conditions: source organism: Giardia lamblia ATCC 50803
HLA-B*46:01 [26] = experiment: as above; conditions: source organism: Giardia lamblia ATCC 50803
HLA-B*15:17 [27] = experiment: as above; conditions: source organism: Giardia lamblia ATCC 50803
HLA-B*27:03 [28] = experiment: as above; conditions: source organism: Giardia lamblia ATCC 50803
HLA-B*15:01 [29] = experiment: as above; conditions: source organism: Giardia lamblia ATCC 50803
HLA-A*26:01 [30] = experiment: as above; conditions: source organism: Giardia lamblia ATCC 50803
HLA-B*18:01 [31] = experiment: as above; conditions: source organism: Giardia lamblia ATCC 50803
HLA-A*24:03 [32] = experiment: as above; conditions: source organism: Giardia lamblia ATCC 50803
HLA-A*69:01 [33] = experiment: as above; conditions: source organism: Giardia lamblia ATCC 50803
HLA-A*02:01 [34] = experiment: as above; conditions: source organism: Giardia lamblia ATCC 50803
HLA-B*51:01 [35] = experiment: as above; conditions: source organism: Giardia lamblia ATCC 50803
HLA-B*39:01 [36] = experiment: as above; conditions: source organism: Giardia lamblia ATCC 50803
[37] = source organism: Rio Mearim virus
[38] = source organism: Orthohantavirus delgaditoense
[39] = source organism: Campylobacter jejuni subsp. jejuni NCTC 11168 = ATCC 700819
[40] = source organism: Human immunodeficiency virus 1
[41] = source organism: Giardia lamblia ATCC 50803
[42] = source organism: Toxoplasma gondii

DWMERIEDF
Kd (HLA-A*03:01 [1]; [37]): ≥ 20 µM
Kd (HLA-A*02:03 [2]; [37]): ≥ 20 µM
Kd (HLA-A*02:16; [37]): ≥ 20 µM
Kd (HLA-A*23:01; [37]): ≥ 20 µM
Kd (HLA-A*02:11 [3]; [37]): ≥ 20 µM
Kd (HLA-A*68:02; [37]): ≥ 20 µM
Kd (HLA-A*29:02 [4]; [37]): ≥ 20 µM
Kd (HLA-A*02:12 [5]; [37]): ≥ 20 µM
Kd (HLA-A*02:19 [6]; [37]): ≥ 20 µM
Kd (HLA-B*57:01 [7]; [38]): ≥ 20 µM
Kd (HLA-B*46:01 [8]; [38]): ≥ 20 µM
Kd (HLA-B*15:17 [9]; [38]): ≥ 20 µM
Kd (HLA-B*27:03 [10]; [38]): ≥ 20 µM
Kd (HLA-A*26:01 [11]; [38]): ≥ 20 µM
Kd (HLA-B*18:01 [12]; [38]): ≥ 20 µM
Kd (HLA-A*24:03 [13]): ≥ 20 µM
Kd (HLA-A*69:01 [14]): ≥ 20 µM
Kd (HLA-A*02:01 [15]; [38]): ≥ 20 µM
Kd (HLA-B*51:01 [16]; [38]): ≥ 20 µM
Kd (HLA-B*39:01 [17]; [38]): ≥ 20 µM

FTFERSKIK
Kd (HLA-A*03:01 [18]): 0.2 µM
Kd (HLA-B*57:01 [7]; [39]): ≥ 20 µM
Kd (HLA-A*02:03 [19]; [39]): ≥ 20 µM
Kd (HLA-B*46:01 [8]; [39]): ≥ 20 µM
Kd (HLA-B*15:17 [9]; [39]): ≥ 20 µM
Kd (HLA-B*27:03 [10]; [39]): ≥ 20 µM
Kd (HLA-B*15:01 [20]): ≥ 20 µM
Kd (HLA-A*26:01 [11]; [39]): ≥ 20 µM
Kd (HLA-B*18:01 [12]; [39]): ≥ 20 µM
Kd (HLA-A*02:11 [21]; [39]): ≥ 20 µM
Kd (HLA-A*02:01 [15]; [39]): ≥ 20 µM
Kd (HLA-A*29:02 [22]): ≥ 20 µM
Kd (HLA-B*51:01 [16]; [39]): ≥ 20 µM
Kd (HLA-A*02:12 [23]): ≥ 20 µM
Kd (HLA-A*02:19 [24]): ≥ 20 µM
Kd (HLA-B*39:01 [17]; [39]): ≥ 20 µM

LNTVATLY
Kd (HLA-A*02:03 [19]; [40]): 0.291 µM
Kd (HLA-B*15:17 [9]; [40]): 2.75 µM
Kd (HLA-A*02:06): 0.0564 µM
Kd (HLA-A*02:01 [15]; [40]): 0.0559 µM
Kd (HLA-B*39:01 [17]; [40]): ≥ 20 µM

MHYGYNRAN
Kd (HLA-A*03:01 [1]; [41]): ≥ 20 µM
Kd (HLA-B*57:01 [25]): ≥ 20 µM
Kd (HLA-A*02:03 [2]; [41]): ≥ 20 µM
Kd (HLA-A*02:16; [41]): ≥ 20 µM
Kd (HLA-B*46:01 [26]): ≥ 20 µM
Kd (HLA-B*15:17 [27]): ≥ 20 µM
Kd (HLA-B*27:03 [28]): ≥ 20 µM
Kd (HLA-B*15:01 [29]): ≥ 20 µM
Kd (HLA-A*26:01 [30]): ≥ 20 µM
Kd (HLA-B*18:01 [31]): ≥ 20 µM
Kd (HLA-A*23:01; [41]): ≥ 20 µM
Kd (HLA-A*02:11 [3]; [41]): ≥ 20 µM
Kd (HLA-A*24:03 [32]): ≥ 20 µM
Kd (HLA-A*68:02; [41]): ≥ 20 µM
Kd (HLA-A*69:01 [33]): ≥ 20 µM
Kd (HLA-A*02:01 [34]): ≥ 20 µM
Kd (HLA-A*29:02 [4]; [41]): ≥ 20 µM
Kd (HLA-B*51:01 [35]): ≥ 20 µM
Kd (HLA-A*02:12 [5]; [41]): ≥ 20 µM
Kd (HLA-A*02:19 [6]; [41]): ≥ 20 µM
Kd (HLA-B*39:01 [36]): ≥ 20 µM

SVVEENTMA
Kd (HLA-A*02:11 [21]; [42]): 0.183 µM
Kd (HLA-A*02:01 [15]; [42]): ≥ 20 µM

Reference: the Immune Epitope Database (IEDB)
